Test results reported in article PMC11341029 (PLOS Pathogens, 2024).

T1: SLC39A9 (Homo sapiens, UniProt Q9NUM3)
T1 chain: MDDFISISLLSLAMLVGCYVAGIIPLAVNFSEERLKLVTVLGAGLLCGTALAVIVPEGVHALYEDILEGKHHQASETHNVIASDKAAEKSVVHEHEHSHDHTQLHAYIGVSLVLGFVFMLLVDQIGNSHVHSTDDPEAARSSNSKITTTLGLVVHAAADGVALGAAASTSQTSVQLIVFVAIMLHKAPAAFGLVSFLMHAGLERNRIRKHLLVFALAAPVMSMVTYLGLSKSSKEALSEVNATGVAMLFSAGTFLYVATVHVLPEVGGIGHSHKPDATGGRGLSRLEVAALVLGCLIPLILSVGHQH

T2: NPC1-10×His-Flag (human, UniProt O15118 23-1278)
T2 construct: also called purified NPC1-Flag; full-length NPC1 protein
T2 sequence (looked up): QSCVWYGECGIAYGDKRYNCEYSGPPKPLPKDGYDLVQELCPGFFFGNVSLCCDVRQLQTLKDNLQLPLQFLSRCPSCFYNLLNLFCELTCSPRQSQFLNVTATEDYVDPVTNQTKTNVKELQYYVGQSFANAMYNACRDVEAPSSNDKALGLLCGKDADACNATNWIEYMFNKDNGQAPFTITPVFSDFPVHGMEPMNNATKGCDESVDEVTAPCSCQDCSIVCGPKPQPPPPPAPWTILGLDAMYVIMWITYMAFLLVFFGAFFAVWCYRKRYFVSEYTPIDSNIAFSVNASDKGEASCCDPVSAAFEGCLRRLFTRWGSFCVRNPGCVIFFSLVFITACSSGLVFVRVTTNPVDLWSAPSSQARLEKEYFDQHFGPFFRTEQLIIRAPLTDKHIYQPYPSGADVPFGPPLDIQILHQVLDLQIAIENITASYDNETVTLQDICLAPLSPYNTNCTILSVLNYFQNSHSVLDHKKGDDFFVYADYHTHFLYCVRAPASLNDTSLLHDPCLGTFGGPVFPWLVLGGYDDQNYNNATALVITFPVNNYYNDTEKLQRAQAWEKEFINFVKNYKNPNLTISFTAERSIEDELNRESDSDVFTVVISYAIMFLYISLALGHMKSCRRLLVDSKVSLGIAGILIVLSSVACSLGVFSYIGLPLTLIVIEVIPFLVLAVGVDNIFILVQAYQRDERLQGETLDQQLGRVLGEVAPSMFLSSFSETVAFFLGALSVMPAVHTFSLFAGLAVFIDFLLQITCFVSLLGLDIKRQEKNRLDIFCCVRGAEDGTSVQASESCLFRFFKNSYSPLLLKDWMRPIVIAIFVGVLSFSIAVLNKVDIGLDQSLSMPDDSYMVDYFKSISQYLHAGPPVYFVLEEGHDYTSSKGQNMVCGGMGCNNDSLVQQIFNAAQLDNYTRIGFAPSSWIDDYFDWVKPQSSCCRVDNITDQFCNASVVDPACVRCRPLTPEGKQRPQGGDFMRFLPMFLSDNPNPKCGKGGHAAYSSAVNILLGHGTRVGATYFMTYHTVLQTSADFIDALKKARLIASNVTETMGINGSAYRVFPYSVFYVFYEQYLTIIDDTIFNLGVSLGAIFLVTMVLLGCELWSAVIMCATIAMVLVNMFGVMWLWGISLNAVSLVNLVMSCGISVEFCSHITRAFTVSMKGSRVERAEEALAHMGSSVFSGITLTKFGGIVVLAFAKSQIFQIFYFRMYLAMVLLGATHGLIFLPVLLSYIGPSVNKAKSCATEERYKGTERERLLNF


Experiments:
[1] = target: T1, SLC39A9; experiment: SPR
[2] = target: T2, NPC1-10×His-Flag; experiment: SPR; settings: both partners purified

Row | Binder | Kd [1] [µM] | Kd [2] [µM]
1 | EBOV GP (protein) IPLGVIHNSTLQVSDVDKLVCRDKLSSTNQLRSVGLNLEGNGVATDVPSATKRWGFRSGVPPKVVNYEAGEWAENCYNLEIKKPDGSECLPAAPDGIRGFPRCRYVHKVSGTGPCAGDFAFHKEGAFFLYDRLASTVIYRGTTFAEGVVAFLILPQAKKDFFSSHPLREPVNATEDPSSGYYSTTIRYQATGFGTNETEYLFEVDNLTYVQLESRFTPQFLLQLNETIYTSGKRSNTTGKLIWKVNPEIDTTIGEWAFWETKKNLTRKIRSEELSFTVVSNGAKNISGQSPARTSSDPGTNTTTEDHKIMASENSSAMVQVHSQGREAAVSHLTTLATISTSPQSLTTKPGPDNSTHNTPVYKLDISEATQVEQHHRRTDNDSTASDTPSATTAAGPPKAENTNTSKSTDFLDPATTTSPQNHSETAGNNNTHHQDTGEESASSGKLGLITNTIAGVAGLITGGRRTRREAIVNAQPKCNPNLHYWTTQDEGAAIGLAWIPYFGPAAEGIYIEGLMHNQDGLICGLRQLANETTQALQLFLRATTELRTFSILNRKAIDFLLQRWGGTCHILGPDCCIEPHDWTKNITDKIDQIIHDFVDKTLPDQGDNDNWWTGWRQWIPAGIGVTGVIIAVIALFCICKFVF | 3 | 
2 | primed EBOV GP (GPcl) (domain or fragment) chain 1: IPLGVIHNSTLQVSDVDKLVCRDKLSSTNQLRSVGLNLEGNGVATDVPSATKRWGFRSGVPPKVVNYEAGEWAENCYNLEIKKPDGSECLPAAPDGIRGFPRCRYVHKVSGTGPCAGDFAFHKEGAFFLYDRLASTVIYRGTTFAEGVVAFLILPQ chain 2: EAIVNAQPKCNPNLHYWTTQDEGAAIGLAWIPYFGPAAEGIYIEGLMHNQDGLICGLRQLANETTQALQLFLRATTELRTFSILNRKAIDFLLQRWGGTCHILGPDCCIEPHDWTKNITDKIDQIIHDFVDKTLPDQGDNDNWWTGWRQ |  | 18.5
